Measurements as given in article PMC6189496, “Epstein-Barr Virus Nuclear Antigen 3C Inhibits Expression of COBLL1 and the ADAM28-ADAMDEC1 Locus via Interaction with the Histone Lysine Demethylase KDM2B” (Journal of Virology, 2018).

T1: histone lysine demethylase KDM2B (human (endogenous in LCLs), UniProt Q8NHM5 1-1336)
T1 construct: KDM2B, endogenous in lymphoblastoid cell lines, immunoprecipitated with anti-KDM2B (09-864; Millipore); also called FBXL10; JHDM1B; source: endogenous, LCL lysate
T1 sequence (looked up): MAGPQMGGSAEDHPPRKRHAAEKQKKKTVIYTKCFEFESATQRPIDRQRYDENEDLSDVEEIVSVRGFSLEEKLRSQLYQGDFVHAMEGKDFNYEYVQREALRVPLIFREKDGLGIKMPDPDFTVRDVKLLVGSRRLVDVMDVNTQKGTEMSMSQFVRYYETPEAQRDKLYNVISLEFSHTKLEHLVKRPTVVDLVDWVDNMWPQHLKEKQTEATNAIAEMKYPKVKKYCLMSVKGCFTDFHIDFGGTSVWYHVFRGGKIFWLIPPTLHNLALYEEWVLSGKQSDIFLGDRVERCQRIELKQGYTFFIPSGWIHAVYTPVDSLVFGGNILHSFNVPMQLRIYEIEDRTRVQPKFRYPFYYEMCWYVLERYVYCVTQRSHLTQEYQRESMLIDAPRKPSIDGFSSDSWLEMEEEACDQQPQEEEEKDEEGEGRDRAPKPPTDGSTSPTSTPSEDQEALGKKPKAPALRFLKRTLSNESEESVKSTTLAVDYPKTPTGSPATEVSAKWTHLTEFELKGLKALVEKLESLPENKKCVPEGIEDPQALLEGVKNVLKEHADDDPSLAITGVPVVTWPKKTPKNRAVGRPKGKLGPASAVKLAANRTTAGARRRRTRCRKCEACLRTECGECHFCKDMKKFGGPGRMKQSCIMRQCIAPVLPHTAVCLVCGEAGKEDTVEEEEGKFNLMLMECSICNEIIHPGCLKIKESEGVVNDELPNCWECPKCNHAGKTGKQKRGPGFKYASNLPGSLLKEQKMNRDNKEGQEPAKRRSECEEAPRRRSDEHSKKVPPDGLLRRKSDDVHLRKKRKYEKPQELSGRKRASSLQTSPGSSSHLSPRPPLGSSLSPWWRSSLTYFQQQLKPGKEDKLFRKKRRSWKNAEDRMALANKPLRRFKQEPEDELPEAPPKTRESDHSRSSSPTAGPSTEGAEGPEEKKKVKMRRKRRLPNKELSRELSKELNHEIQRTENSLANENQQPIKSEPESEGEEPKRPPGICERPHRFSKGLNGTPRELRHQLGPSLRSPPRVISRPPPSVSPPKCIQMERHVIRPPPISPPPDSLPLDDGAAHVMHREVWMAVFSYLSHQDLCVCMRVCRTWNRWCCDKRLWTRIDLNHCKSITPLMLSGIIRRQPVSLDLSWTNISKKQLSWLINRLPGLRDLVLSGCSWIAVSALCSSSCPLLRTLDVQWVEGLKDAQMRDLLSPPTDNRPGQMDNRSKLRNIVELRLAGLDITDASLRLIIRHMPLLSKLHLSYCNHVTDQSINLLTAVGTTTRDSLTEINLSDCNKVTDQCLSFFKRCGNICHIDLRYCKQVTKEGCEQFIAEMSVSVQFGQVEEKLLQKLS

T2: BMI1 (human (endogenous in LCLs), UniProt P35226 1-326)
T2 construct: BMI1, endogenous in lymphoblastoid cell lines, immunoprecipitated with anti-BMI1 (A301-694A; Bethyl); also called PRC1 core component BMI1; source: endogenous, LCL lysate
T2 sequence (looked up): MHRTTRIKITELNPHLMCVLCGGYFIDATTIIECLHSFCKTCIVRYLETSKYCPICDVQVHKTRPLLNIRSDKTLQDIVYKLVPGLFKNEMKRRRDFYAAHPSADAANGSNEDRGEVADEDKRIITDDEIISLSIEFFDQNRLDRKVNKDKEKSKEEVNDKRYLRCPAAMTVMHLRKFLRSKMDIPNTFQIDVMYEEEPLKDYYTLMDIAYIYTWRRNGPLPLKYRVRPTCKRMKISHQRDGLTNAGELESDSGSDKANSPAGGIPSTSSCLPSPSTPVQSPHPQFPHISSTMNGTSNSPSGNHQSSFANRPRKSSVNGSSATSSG


Experiments:
[1] = molecular target: T1, histone lysine demethylase KDM2B; test: co-IP; LCL extracts (10^7 cells lysed in IP buffer, precleared); the cellular protein (RBPJ, BMI1, SUZ12 or KDM2B) immunoprecipitated from 200 ug lysate overnight at 4°C, protein G-Sepharose, four washes; Western blot for EBNA3C; isotype IgG control; mutants quantified by ImageJ as percent relative IP compared to EBNA3C WT; details: partners not purified
BMI1 = molecular target: T2, BMI1; test: as above; details: partners not purified

Row | Binder | percent relative IP compared to EBNA3C WT [1] [%] | percent relative IP compared to EBNA3C WT (BMI1) [%]
1 | EBNA3C HDmut (209TFGC212 mutated to 209AAAA212) (natural protein, EBNA3C of Epstein-Barr virus, strain B95.8, with the TFGC (homology domain) motif mutated to alanines; also called homology domain mutant) MESFEGQGDSRQSPDNERGDNVQTTGEHDQDPGPGPPSSGASERLVPEESYSRDQQPWGQSRGDENRGWMQRIRRRRRRRAALSGHLLDTEDNVPPWLPPHDITPYTARNIRDAACRAVKQSHLQALSNLILDSGLDTQHILCFVMAARQRLQDIRRGPLVAEGGVGWRHWLLTSPSQSWPMGYRTATLRTLTPVPNRVGADSIMLTAAAAAQNAARTLNTFSATVWTPPHAGPREQERYAREAEVRFLRGKWQRRYRRIYDLIELCGSLHHIWQNLLQTEENLLDFVRFMGVMSSCNNPAVNYWFHKTIGNFKPYYPWNAPPNENPYHARRGIKEHVIQNAFRKAQIQGLSMLATGGEPRGDATSETSSDEDTGRQGSDVELESSDDELPYIDPNMEPVQQRPVMFVSRVPAKKPRKLPWPTPKTHPVKRTNVKTSDRSDKAEAQSTPERPGPSEQSSVTVEPAHPTPVEMPMVILHQPPPVPKPVPVKPTPPPSRRRRGACVVYDDDVIEVIDVETTEDSSSVSQPNKPHRKHQDGFQRSGRRQKRAAPPTVSPSDTGPPAVGPPAAGPPAAGPPAAGPPAAGPPAAGPPAAGPRILAPLSAGPPAAGPHIVTPPSARPRIMAPPVVRMFMRERQLPQSTGRKPQCFWEMRAGREITQMQQEPSSHLQSATQPTTPRPSWAPSVCALSVMDAGKAQPIESSHLSSMSPTQPISHEEQPRYEDPDAPLDLSLHPDVAAQPAPQAPYQGYQEPPAPQAPYQGYQEPPPPQAPYQGYQEPPAHGLQSSSYPGYAGPWTPRSQHPCYRHPWAPWSQDPVHGHTQGPWDPRAPHLPPQWDGSAGHGQDQVSQFPHLQSETGPPRLQLSLVPLVSSSAPSWSSPQPRAPIRPIPTRFPPPPMPLQDSMAVGCDSSGTACPSMPFASDYSQGAFTPLDINATTPKRPRVEESSHGPARCSQATAEAQEILSDNSEISVFPKDAKQTDYDASTESELD | 8 | 60
2 | EBNA3C W227S (natural protein, EBNA3C of Epstein-Barr virus, strain B95.8, with W227S in the 226VWTP229 motif) MESFEGQGDSRQSPDNERGDNVQTTGEHDQDPGPGPPSSGASERLVPEESYSRDQQPWGQSRGDENRGWMQRIRRRRRRRAALSGHLLDTEDNVPPWLPPHDITPYTARNIRDAACRAVKQSHLQALSNLILDSGLDTQHILCFVMAARQRLQDIRRGPLVAEGGVGWRHWLLTSPSQSWPMGYRTATLRTLTPVPNRVGADSIMLTATFGCQNAARTLNTFSATVSTPPHAGPREQERYAREAEVRFLRGKWQRRYRRIYDLIELCGSLHHIWQNLLQTEENLLDFVRFMGVMSSCNNPAVNYWFHKTIGNFKPYYPWNAPPNENPYHARRGIKEHVIQNAFRKAQIQGLSMLATGGEPRGDATSETSSDEDTGRQGSDVELESSDDELPYIDPNMEPVQQRPVMFVSRVPAKKPRKLPWPTPKTHPVKRTNVKTSDRSDKAEAQSTPERPGPSEQSSVTVEPAHPTPVEMPMVILHQPPPVPKPVPVKPTPPPSRRRRGACVVYDDDVIEVIDVETTEDSSSVSQPNKPHRKHQDGFQRSGRRQKRAAPPTVSPSDTGPPAVGPPAAGPPAAGPPAAGPPAAGPPAAGPPAAGPRILAPLSAGPPAAGPHIVTPPSARPRIMAPPVVRMFMRERQLPQSTGRKPQCFWEMRAGREITQMQQEPSSHLQSATQPTTPRPSWAPSVCALSVMDAGKAQPIESSHLSSMSPTQPISHEEQPRYEDPDAPLDLSLHPDVAAQPAPQAPYQGYQEPPAPQAPYQGYQEPPPPQAPYQGYQEPPAHGLQSSSYPGYAGPWTPRSQHPCYRHPWAPWSQDPVHGHTQGPWDPRAPHLPPQWDGSAGHGQDQVSQFPHLQSETGPPRLQLSLVPLVSSSAPSWSSPQPRAPIRPIPTRFPPPPMPLQDSMAVGCDSSGTACPSMPFASDYSQGAFTPLDINATTPKRPRVEESSHGPARCSQATAEAQEILSDNSEISVFPKDAKQTDYDASTESELD | 80 | –
